Experimental findings from PMC2948513 (PLoS ONE, 2010) are described below.

Non-standard residues stand in square brackets, D forms with d. No end group written: not given here. *: point of attachment. Biotin = O=C1N[C@H]2[C@H](CS[C@H]2CCCCC(=O)*)N1; pS = N[C@@H](COP(=O)(O)O)C(=O)O

Test [1] addresses PTEN C-terminal domain, 367-403 (UniProt P60484). The test is described as follows: biotin-peptide streptavidin-agarose pull-down, PTEN blot. The settings on record: reference: non-phosphorylated NEP-NT peptide; sites S6.
In test [2] the target is Ezrin N-terminus, 1-310 (UniProt P15311). The test is described as follows: biotin-peptide streptavidin-agarose pull-down, MBP blot. The settings on record: reference: non-phosphorylated NEP-NT peptide; sites S6.
Test [3] has the same target. The test is described as follows: SPR, peptide on streptavidin chip. The settings on record: reference: non-phosphorylated NEP-NT peptide; sites S6. Background: Surface plasmon resonance follows binding to a sensor surface in real time, without labels.
Test [4] addresses PTEN C-terminal domain, 367-403 (UniProt P60484). The test is described as follows: SPR, peptide on streptavidin chip. The settings on record: reference: non-phosphorylated NEP-NT peptide; sites S6.
Test [5] has as its target T1, fusion protein of the maltose binding protein (MBP) and the N-terminus of Ezrin (amino acids 1-310) (human, UniProt P15311 1-310).
T1 construct: Ezrin, human, N-terminus, amino acids 1-310; Cloned into the EcoRI/SalI sites of pMAL-c2; also called MBP-Ezrin-NT; MBP Ezrin-NT; source: E. coli DH5α, precipitated by Amylose-resin
The test can be described thus: SPR; Biacore3000; biotin-labeled NEP peptides coupled to streptavidin (SA) chip to ~1000 RU; HBS-P buffer (10 mM HEPES pH 7.4, 150 mM NaCl, 0.005% Surfactant P20), 25°C, 30 µl/min; reference surface without peptide subtracted; MBP Ezrin-NT 0.05-0.8 µM, GST PTEN-CT 1.6-12.8 µM. The settings on record: both partners purified.

On to “Neprilysin (NEP, CD10) N-terminal cytoplasmic domain, 2-23 (from UniProt P08473) pSer6 peptide (pNEP-NT)”, for which the “binding against the reference” value is on record as “weaker” in test [1] and “same” with Ezrin N-terminus, 1-310 [2]. Besides, the KD entry in the test with Ezrin N-terminus, 1-310 [3] is “same; reference ∼5.8”; in test [4] it was “weaker; reference ∼0,71”.

B1: synthetic biotin-labeled peptide representing the N-terminal cytoplasmic domain (aa 2-23) of human NEP with serine 6 phosphorylated (peptide)
peptide: GKSE[pS]QMDITDINTPKPKKKQRK(Biotin)
notes: neprilysin (NEP, neutral endopeptidase 24.11, CD10), human, N-terminal cytoplasmic domain, amino acids 2-23, serine 6 phosphorylated; C-terminal lysine that carries the biotin, named in words only; It is surmised that the biotinylated lysine is an extra residue after aa 23; also called pNEP-NT; phosphorylated NEP-NT; source: synthetic peptide (Peptide Specialty Labs, Heidelberg)
Broadly, the Kd is the equilibrium constant for the complex coming apart. The molecule B1 returned an equilibrium dissociation constant (Kd) in test [5] of about 5.9 nM.

B2: synthetic biotin-labeled peptide representing the N-terminal cytoplasmic domain (aa 2-23) of human NEP, non-phosphorylated (peptide)
peptide: GKSESQMDITDINTPKPKKKQRK(Biotin)
notes: neprilysin (NEP, neutral endopeptidase 24.11, CD10), human, N-terminal cytoplasmic domain, amino acids 2-23; C-terminal lysine that carries the biotin, named in words only; It is surmised that the biotinylated lysine is an extra residue after aa 23; also called NEP-NT; non-phosphorylated NEP-NT; source: synthetic peptide (Peptide Specialty Labs, Heidelberg)
In test [5], B2 showed a Kd of about 5.8 nM.
